± gives the uncertainty stated by the source.
Experiment: protein stability index of a GFP-peptide fusion (yeast GPS) (PSI 1-4); higher = more stable; sorted into four equal gates, so the index is relative within each strain
Method in brief: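 Mid-log yeast cultures in leucine-free medium, carrying a pooled plasmid library, were sorted into four equal gates by their GFP/Cherry fluorescence ratio. Each plasmid expressed Cherry along with GFP fused upstream of a tiled 17-residue yeast protein peptide. Plasmids recovered from each gate were PCR-amplified and Illumina-sequenced, with reads assigned to strains by barcodes. The protein stability index was obtained by summing each gate's read frequency weighted by its gate number.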

Sequence | protein stability index (doa10∆) | protein stability index (pdr5∆) | protein stability index (san1∆) | protein stability index (ubr1∆)
QDRDRFFLRDTLLWNKN [SNF5] | 2.99 ± 0.056 | 3.08 ± 0.052 | 2.83 ± 0.046 | 3 ± 0.039
ESLKKSPIFEVLSDDAK [ARP9] | 3.01 ± 0.072 | 3.15 ± 0.079 | 3.06 ± 0.073 | 3.32 ± 0.058
QAQAQAQANNNNNGLPQ [GAL11] | 3.04 ± 0.037 | 3.1 ± 0.035 | 2.952 ± 0.029 | 3.05 ± 0.033
TETEVEREQPQENKNID [SRB4] | 3.42 ± 0.1 | 3.41 ± 0.091 | 3.07 ± 0.068 | 3.62 ± 0.089
VRDVAAQDFINAYASFL [RPS19A] | 2.85 ± 0.078 | 2.5 ± 0.092 | 2.96 ± 0.22 | 2.21 ± 0.088
AGYTDNVIRVWQVMTAN [ASC1] | 1.56 ± 0.14 | 1.35 ± 0.08 | 1.5 ± 0.21 | 1.3 ± 0.075
QPEVAVKAAINFSNVTD [YIL149C/MLP2] | 2.21 ± 0.064 | 2.44 ± 0.055 | 2.2 ± 0.071 | 2.55 ± 0.048
LGLKLACLGNDGILRLY [YGL100W/SEH1] | 1.78 ± 0.056 | 1.75 ± 0.05 | 1.86 ± 0.057 | 1.72 ± 0.034
VVETITSLLNKVLKSGS [RRP42] | 2.67 ± 0.11 | 2.37 ± 0.067 | 2.54 ± 0.085 | 2.45 ± 0.051
KEALQNNIFKEFTSKIG [SMC1] | 2.22 ± 0.064 | 2.3 ± 0.082 | 2.52 ± 0.11 | 2.24 ± 0.073
NQIWNIALNLASKKFGK [SSN2] | 2.7 ± 0.13 | 2.88 ± 0.052 | 3.06 ± 0.067 | 3.08 ± 0.056
SPVELSRMFEEVSGSIQ [SMC1] | 2.9 ± 0.06 | 2.16 ± 0.052 | 2.38 ± 0.065 | 3.02 ± 0.062
TIFKYLTDKDAFETHYR [CDC53] | 3.27 ± 0.11 | 3.12 ± 0.086 | 3.09 ± 0.049 | 2.98 ± 0.061
QLNGNETFSTSAHQSPI [SNF2] | 3.31 ± 0.11 | 2.99 ± 0.075 | 3.16 ± 0.072 | 3.22 ± 0.054
TAKRKSRKRKPKSASNT [IRR1] | 2.97 ± 0.12 | 3.21 ± 0.13 | 2.6 ± 0.26 | 3.08 ± 0.055
EALAFTSLVANENDKIY [YDL116W/NUP84] | 1.85 ± 0.06 | 2.4 ± 0.052 | 2.02 ± 0.12 | 2.93 ± 0.062
KRLSAALSKFLTHPKYL [YML103C/NUP188] | 2.48 ± 0.072 | 2.25 ± 0.066 | 2.84 ± 0.07 | 2.91 ± 0.065
STNESNKSISDEITEDM [SSN2] | 2.5 ± 0.05 | 2.75 ± 0.057 | 2.8 ± 0.05 | 2.98 ± 0.045
KPNLNYFKSILLNKNTG [SWI1] | 2.17 ± 0.058 | 2.19 ± 0.044 | 1.76 ± 0.066 | 1.75 ± 0.038
IQRTRERKKSIGSQRGR [DSN1] | 2.94 ± 0.077 | 2.5 ± 0.063 | 2.56 ± 0.061 | 2.91 ± 0.069
AAKPDNLANFSNEVAMN [SWP82] | 3.32 ± 0.11 | 3.22 ± 0.088 | 3.15 ± 0.056 | 3.23 ± 0.067
ETITTKRVPNPNFLGNC [SWP82] | 2.68 ± 0.054 | 2.58 ± 0.047 | 2.18 ± 0.05 | 2.32 ± 0.048
ESDETTTDNNNSGNSNS [RPT1] | 3.12 ± 0.094 | 3.11 ± 0.098 | 2.66 ± 0.22 | 3.13 ± 0.051
MAAALPNPTPSMINSVS [PGD1] | 1.77 ± 0.05 | 2.3 ± 0.061 | 2.05 ± 0.052 | 2.1 ± 0.045
RAPKANGALDPKMGVSS [RPO31] | 3.12 ± 0.23 | 3.11 ± 0.16 | 3.05 ± 0.093 | 3.04 ± 0.08
LKLNHIIANINSFTKGN [SNU114] | 1.52 ± 0.059 | 2.15 ± 0.062 | 1.83 ± 0.054 | 1.84 ± 0.035
NKGRAVYINPSGEKIDF [BRR2] | 2.98 ± 0.13 | 2.76 ± 0.1 | 2.91 ± 0.071 | 3.17 ± 0.098

Sequence | protein stability index (doa10∆) | protein stability index (pdr5∆) | protein stability index (san1∆) | protein stability index (ubr1∆)
KLKQLLDESSEQKNTAK [YIL149C/MLP2] | 3.02 ± 0.11 | 3.22 ± 0.11 | 2.6 ± 0.17 | 2.99 ± 0.065
MPKKRASNGRNKKGRGH [RPS26A] | 3.3 ± 0.17 | 3.43 ± 0.19 | 2.82 ± 0.24 | 3.5 ± 0.083
GDQFLRYVNLLGVTYSS [PRE4] | 2.27 ± 0.1 | 2.33 ± 0.062 | 2.1 ± 0.075 | 2.02 ± 0.042
SDIESANNQEYDLNFKL [SMC1] | 3.12 ± 0.29 |  |  | 
ENGDYAACEKLLPPIKI [RPN12] |  |  | 1.89 ± 0.21 | 
SSPDTMKLTDLLSLINS [SNF12] | 2.69 ± 0.042 | 2.73 ± 0.039 | 2.81 ± 0.047 | 2.67 ± 0.036
KARNGLDYVRTPAAATS [SNF2] | 2.4 ± 0.059 | 2.44 ± 0.072 | 2.12 ± 0.08 | 2.35 ± 0.049
DEEMLTSCTIPKAVVDH [GAL11] | 2.94 ± 0.085 | 2.77 ± 0.076 | 2.44 ± 0.12 | 2.9 ± 0.076
EIEQPVTTFVFTGQGSQ [FAS1] | 2.86 ± 0.1 | 2.91 ± 0.075 | 2.49 ± 0.14 | 2.24 ± 0.066
LIRRLVRVGVLSEDKKK [RPS9A] | 1.7 ± 0.24 | 1.45 ± 0.29 |  | 1.12 ± 0.18
AARHKQHEQGTFEKHDR [RRI2] | 3.02 ± 0.067 | 3.04 ± 0.23 |  | 2.96 ± 0.14
GDRQRLGEEHPLQVARC [RPT1] | 1.43 ± 0.097 | 1.32 ± 0.19 | 3.25 ± 0.22 | 1.53 ± 0.15
PTRMVRVAKGSGTSVFE [SRP54] | 2.94 ± 0.29 |  |  | 
GRLSLRSLTAYAPNLML [QCR10] | 1.26 ± 0.041 | 1.9 ± 0.051 | 1.63 ± 0.081 | 1.42 ± 0.06
NLNVYIQVFEKPFLKKT [CDC53] | 2.2 ± 0.071 | 2.23 ± 0.056 | 2.57 ± 0.074 | 2.63 ± 0.057
YDRHQSSSKQQSRLFIN [SMC4] |  |  |  | 3.31 ± 0.2
RIIEKSVRRSGALDVEG [RRP45] | 2.43 ± 0.07 | 2.65 ± 0.075 | 2.47 ± 0.11 | 2.53 ± 0.072
RDCIDISIFSTPGSVSL [PRP8] | 2.79 ± 0.11 | 2.88 ± 0.11 | 2.45 ± 0.1 | 3.02 ± 0.12
RTQPWSIMPDLYFYRDP [RPS0A] | 2.55 ± 0.051 | 2.85 ± 0.056 | 2.85 ± 0.043 | 2.6 ± 0.055
QFYVKRWKRFTIGAIFL [CDC53] | 2.81 ± 0.076 | 2.94 ± 0.093 | 3.08 ± 0.099 | 2.04 ± 0.055
PNFTGIDKLMLSPSDQF [SSN2] | 1.39 ± 0.08 | 1.33 ± 0.068 |  | 1.61 ± 0.067
INQIFSPEEQRSLLQEA [GAL11] | 2.95 ± 0.12 | 3.07 ± 0.063 | 3.53 ± 0.11 | 3.03 ± 0.1
TQLSYLISSSLSNLSKD [YCS4] | 1.7 ± 0.041 | 1.65 ± 0.041 | 1.63 ± 0.074 | 2.13 ± 0.045
ISSPIVANSPNKRLDVI [YDL088C/ASM4] | 2.71 ± 0.23 | 2.88 ± 0.14 |  | 2.85 ± 0.13
QLNEERSRYRREIDALK [YIL149C/MLP2] | 3.44 ± 0.092 | 3.25 ± 0.065 | 3.24 ± 0.045 | 3.25 ± 0.035
KNLKDTASVEKAEFSKE [YIL149C/MLP2] | 3.07 ± 0.083 | 3.19 ± 0.091 | 3.09 ± 0.1 | 3.24 ± 0.081
LLISLNILFSLWKLLST [YLR018C/POM34] | 1.63 ± 0.071 | 1.25 ± 0.077 | 1.22 ± 0.21 | 1.18 ± 0.067

— the supplement of paper PMC9732359
